Laboratory results as given in the supplement of paper PMC6757056.
± gives the standard deviation of the averaged measurements.

B1: library; a variant is named by its letters at N, in order (parent)
chain: GCUGUCACCGAGAAACUGUGAAGUAUAUCUUAAACCUGGGCACUUAAAAGAUAUAUGGAGUUAGUAGUGCAACCUGCUCGGUCUGAUGAGUCCNNNNNNGGACGAAACAGC

Tests used:
[1] = variants of: B1; assay: normalized RNA/DNA level without ligand (relative to sTRSVctl = 100) (log10 (% of sTRSVctl)); HEK293T; ligand: cyclic di-GMP (c-di-GMP-II aptamer); higher = less ribozyme self-cleavage, higher mRNA level; conditions: reporter: mCherry (pCS4076), ligand present: no
Summary of the method: (§1)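 Library plasmids encoding reporter-linked ribozyme switches (mCherry, or eGFP for some folinic acid experiments) were transfected into HEK293T at 4 µg per 6-well well. Ligand, when used, was added 1 h before transfection. Total RNA was extracted with EDTA 72 h later, then reverse-transcribed, amplified, barcoded and sequenced. RNA level was RNA reads over DNA reads, divided by a spiked-in non-cleaving control (or the top 25 sequences), ×100, log10; only sequences with ≥100 DNA reads were kept.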

[2] = variants of: B1; assay: normalized RNA/DNA level with ligand (relative to sTRSVctl = 100) (log10 (% of sTRSVctl)); HEK293T; ligand: cyclic di-GMP (c-di-GMP-II aptamer); ligand concentration (+) RNA-Seq: 1 mM; higher = less ribozyme self-cleavage, higher mRNA level; conditions: reporter: mCherry (pCS4076), ligand present: yes
Summary of the method: as §1

Variant	normalized RNA/DNA level without ligand (log10) [1]	normalized RNA/DNA level with ligand (log10) [2]
CACUAU	1.52 ± 0.067	1.72 ± 0.076
CACUAC	1.64 ± 0.037	1.77 ± 0.11
CACUAG	1.759 ± 0.017	1.88 ± 0.14
AAGGGC	1.61 ± 0.027	1.75 ± 0.13
CACGUA	1.504 ± 0.014	1.7 ± 0.056
CACGUU	1.729 ± 0.0022	1.86 ± 0.088
CACGUC	1.73 ± 0.075	1.87 ± 0.11
GAGCGG	1.88 ± 0.079	1.96 ± 0.096
GAGCGA	1.735 ± 0.0089	1.85 ± 0.085
UACCUU	1.637 ± 0.0055	1.82 ± 0.12
UACCUC	1.79 ± 0.0062	1.93 ± 0.093
UACCUG	1.724 ± 0.0039	1.87 ± 0.091
UACCUA	1.68 ± 0.018	1.82 ± 0.081
AAGACU	1.66 ± 0.019	1.84 ± 0.057
GACUUC	1.74 ± 0.038	1.91 ± 0.1
AAGCUC	1.74 ± 0.012	1.89 ± 0.13
AAGCUG	1.64 ± 0.019	1.79 ± 0.076
AAGCUU	1.7 ± 0.022	1.84 ± 0.073
AAGCUA	1.56 ± 0.024	1.72 ± 0.12
UAGCAU	1.653 ± 0.0034	1.8 ± 0.11
UAGCAA	1.716 ± 0.0099	1.84 ± 0.087
UAGCAG	1.82 ± 0.032	1.85 ± 0.032
UAGCAC	1.708 ± 0.0035	1.83 ± 0.095
UAGAAG	1.61 ± 0.027	1.8 ± 0.11

Variant	normalized RNA/DNA level without ligand (log10) [1]	normalized RNA/DNA level with ligand (log10) [2]
UAGAAC	1.641 ± 0.014	1.82 ± 0.13
UAGCUA	1.71 ± 0.038	1.82 ± 0.12
UAGCUU	1.68 ± 0.055	1.81 ± 0.073
UAGCUC	1.75 ± 0.022	1.89 ± 0.1
UAGCUG	1.74 ± 0.038	1.86 ± 0.084
GACUCU	1.704 ± 0.005	1.84 ± 0.12
GACUCG	1.78 ± 0.081	1.87 ± 0.074
GACUCC	1.77 ± 0.0029	1.89 ± 0.079
GACUCA	1.709 ± 0.011	1.83 ± 0.11
AAGGCG	1.728 ± 0.012	1.83 ± 0.091
AAGGCC	1.759 ± 0.0039	1.83 ± 0.083
AAGGCA	1.63 ± 0.05	1.71 ± 0.096
AAGGCU	1.71 ± 0.088	1.83 ± 0.22
GAGGAA	1.6 ± 0.055	1.72 ± 0.092
GAGGAG	1.752 ± 0.014	1.82 ± 0.081
GAGGAU	1.66 ± 0.022	1.77 ± 0.13
GAGGAC	1.67 ± 0.053	1.79 ± 0.11
CACUUU	1.51 ± 0.057	1.7 ± 0.17
CACUUC	1.71 ± 0.022	1.83 ± 0.16
CAGCGG	1.78 ± 0.032	1.9 ± 0.14
CAGCGU	1.701 ± 0.011	1.84 ± 0.088
CAGCGC	1.731 ± 0.013	1.87 ± 0.15
CAGCGA	1.49 ± 0.1	1.7 ± 0.055
UACGCG	1.81 ± 0.04	1.9 ± 0.11

Variant	normalized RNA/DNA level without ligand (log10) [1]	normalized RNA/DNA level with ligand (log10) [2]
UACGCC	1.77 ± 0.021	1.87 ± 0.12
UACGCA	1.78 ± 0.018	1.89 ± 0.067
UAGAGC	1.712 ± 0.005	1.85 ± 0.047
UAGAGA	1.51 ± 0.042	1.72 ± 0.089
UAGAGU	1.56 ± 0.066	1.73 ± 0.067
UAGAGG	1.67 ± 0.087	1.82 ± 0.1
GAGAGC	1.71 ± 0.02	1.85 ± 0.12
GAGAGU	1.65 ± 0.0094	1.8 ± 0.1
GAGAGG	1.746 ± 0.016	1.82 ± 0.11
UACGUA	1.64 ± 0.018	1.8 ± 0.056
UACGUC	1.69 ± 0.06	1.81 ± 0.13
UACGUU	1.684 ± 0.0031	1.84 ± 0.093
GACUGU	1.654 ± 0.0065	1.8 ± 0.15
GACUGG	1.68 ± 0.074	1.78 ± 0.1
GACUGA	1.57 ± 0.041	1.72 ± 0.12
GACUGC	1.705 ± 0.012	1.88 ± 0.068
UAGCCU	1.73 ± 0.03	1.86 ± 0.043
UAGCCA	1.71 ± 0.04	1.86 ± 0.1
UAGCCG	1.79 ± 0.063	1.93 ± 0.12
AAGCCG	1.732 ± 0.0043	1.82 ± 0.069
GACGGC	1.627 ± 0.0064	1.72 ± 0.088
GACGGU	1.633 ± 0.0071	1.8 ± 0.11
GACGGG	1.76 ± 0.027	1.85 ± 0.062
GAGGCU	1.83 ± 0.046	1.87 ± 0.068

Variant	normalized RNA/DNA level without ligand (log10) [1]	normalized RNA/DNA level with ligand (log10) [2]
GAGGCC	1.7859 ± 0.0011	1.89 ± 0.048
GAGGCG	1.817 ± 0.018	1.9 ± 0.14
GAGGCA	1.81 ± 0.039	1.86 ± 0.089
UAGCGC	1.76 ± 0.019	1.88 ± 0.036
UAGCGU	1.59 ± 0.056	1.72 ± 0.1
UAGCGG	1.8203 ± 0.00054	1.95 ± 0.067
UAGCGA	1.61 ± 0.053	1.76 ± 0.095
CAGGAU	1.64 ± 0.094	1.78 ± 0.068
CAGGAC	1.715 ± 0.017	1.81 ± 0.1
CAGGAG	1.64 ± 0.091	1.79 ± 0.098
CAGCCG	1.847 ± 0.0028	1.9 ± 0.074
CAGCCU	1.59 ± 0.055	1.79 ± 0.12
UACUUG	1.734 ± 0.0022	1.89 ± 0.063
UACUUA	1.7 ± 0.055	1.84 ± 0.11
UACUUC	1.763 ± 0.0059	1.87 ± 0.12
AAGAUC	1.6 ± 0.084	1.74 ± 0.097
AAGAUG	1.49 ± 0.055	1.71 ± 0.075
AAGAUU	1.63 ± 0.043	1.8 ± 0.054
UACUAC	1.75 ± 0.037	1.87 ± 0.08
UACUAA	1.71 ± 0.014	1.81 ± 0.061
UACUAG	1.697 ± 0.012	1.84 ± 0.09
UACGAC	1.67 ± 0.017	1.82 ± 0.11
UACGAG	1.674 ± 0.0019	1.82 ± 0.1
UACGAU	1.63 ± 0.046	1.8 ± 0.15

Variant	normalized RNA/DNA level without ligand (log10) [1]	normalized RNA/DNA level with ligand (log10) [2]
UAGGAC	1.528 ± 0.015	1.73 ± 0.082
UAGGAU	1.58 ± 0.049	1.76 ± 0.078
UAGGAG	1.59 ± 0.05	1.76 ± 0.13
AACGAA	1.38 ± 0.059	1.59 ± 0.16
AACGAC	1.6 ± 0.04	1.79 ± 0.12
AACUGC	1.686 ± 0.0067	1.82 ± 0.089
AACUGU	1.7 ± 0.023	1.85 ± 0.1
UAGGGC	1.64 ± 0.035	1.78 ± 0.1
GAGACG	1.8 ± 0.045	1.83 ± 0.13
GAGACA	1.8 ± 0.033	1.85 ± 0.088
CAGCUC	1.7753 ± 0.00068	1.87 ± 0.099
AACUCA	1.65 ± 0.035	1.8 ± 0.088
AACUCU	1.73 ± 0.06	1.88 ± 0.12
AACUCG	1.66 ± 0.047	1.82 ± 0.085
CAGGCG	1.75 ± 0.091	1.88 ± 0.13
CAGGCU	1.8 ± 0.012	1.9 ± 0.11
CAGGCA	1.615 ± 0.0084	1.71 ± 0.13
CACGAC	1.67 ± 0.053	1.83 ± 0.13
CACGAG	1.63 ± 0.028	1.81 ± 0.076
CACGAU	1.68 ± 0.032	1.83 ± 0.089
